Test results: patent JP2014141434A (dated 2014)

Experiments:
[1] = target: T1, N末端FLAG−tag付加型ヒトROBO4細胞外領域ドメイン欠損体 hROBO4−210 (human, UniProt Q8WZ75 210-1007); experiment: flow cytometry, transfected HEK293 cells
T1 construct: On HEK293 cells; also called pCI−FLAG−hROBO4−210; pCI−hROBO4−210
T1 sequence: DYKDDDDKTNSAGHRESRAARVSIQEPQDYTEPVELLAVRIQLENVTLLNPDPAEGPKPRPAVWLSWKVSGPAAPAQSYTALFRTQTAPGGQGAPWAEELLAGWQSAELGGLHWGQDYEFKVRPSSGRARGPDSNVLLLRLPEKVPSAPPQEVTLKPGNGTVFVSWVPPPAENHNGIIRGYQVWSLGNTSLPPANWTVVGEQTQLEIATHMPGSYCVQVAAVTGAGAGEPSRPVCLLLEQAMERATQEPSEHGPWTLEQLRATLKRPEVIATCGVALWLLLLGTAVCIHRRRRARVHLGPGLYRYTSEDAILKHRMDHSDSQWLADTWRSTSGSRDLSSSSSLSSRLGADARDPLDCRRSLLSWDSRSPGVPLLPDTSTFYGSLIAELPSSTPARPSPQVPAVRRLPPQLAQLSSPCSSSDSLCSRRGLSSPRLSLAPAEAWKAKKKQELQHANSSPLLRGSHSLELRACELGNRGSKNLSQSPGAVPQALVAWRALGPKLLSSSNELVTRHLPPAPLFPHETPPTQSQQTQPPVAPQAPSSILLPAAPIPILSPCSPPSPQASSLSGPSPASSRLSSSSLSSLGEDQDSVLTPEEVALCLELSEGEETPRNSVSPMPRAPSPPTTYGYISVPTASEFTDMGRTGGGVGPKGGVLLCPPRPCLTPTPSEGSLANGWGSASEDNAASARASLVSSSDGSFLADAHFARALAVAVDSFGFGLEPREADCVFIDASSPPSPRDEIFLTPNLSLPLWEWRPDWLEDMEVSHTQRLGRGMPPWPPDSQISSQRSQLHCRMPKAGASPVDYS

[2] = target: T2, N末端FLAG−tag付加型ヒトROBO4細胞外領域ドメイン欠損体 hROBO4−225 (human, UniProt Q8WZ75 225-1007); experiment: flow cytometry, transfected HEK293 cells
T2 construct: On HEK293 cells; also called pCI−FLAG−hROBO4−225; pCI−hROBO4−225
T2 sequence: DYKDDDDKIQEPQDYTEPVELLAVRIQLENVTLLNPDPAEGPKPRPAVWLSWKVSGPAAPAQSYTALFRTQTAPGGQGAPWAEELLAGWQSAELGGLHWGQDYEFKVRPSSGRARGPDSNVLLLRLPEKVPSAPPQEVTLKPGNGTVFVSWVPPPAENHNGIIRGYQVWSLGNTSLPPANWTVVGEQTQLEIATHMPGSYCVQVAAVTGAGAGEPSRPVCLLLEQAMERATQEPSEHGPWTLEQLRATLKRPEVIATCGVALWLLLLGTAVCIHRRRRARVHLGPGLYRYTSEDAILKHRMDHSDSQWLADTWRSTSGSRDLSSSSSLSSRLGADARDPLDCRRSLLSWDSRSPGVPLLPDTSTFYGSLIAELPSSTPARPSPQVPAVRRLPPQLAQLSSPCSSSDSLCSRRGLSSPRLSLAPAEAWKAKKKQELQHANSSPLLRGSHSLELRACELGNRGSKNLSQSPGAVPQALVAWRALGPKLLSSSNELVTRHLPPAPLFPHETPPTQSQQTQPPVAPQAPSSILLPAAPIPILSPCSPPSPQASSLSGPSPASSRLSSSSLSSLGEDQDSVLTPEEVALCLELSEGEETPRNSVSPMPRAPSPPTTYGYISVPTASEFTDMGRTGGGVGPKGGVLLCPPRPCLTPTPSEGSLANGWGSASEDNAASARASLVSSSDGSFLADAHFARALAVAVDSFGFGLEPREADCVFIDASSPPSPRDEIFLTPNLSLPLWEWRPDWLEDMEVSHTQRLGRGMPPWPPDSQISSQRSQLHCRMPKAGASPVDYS

binding result [1]: no binding (tested: 10 μg/mL)
binding result [2]: no binding (tested: 10 μg/mL)
B1: 抗ROBO4マウスモノクローナル抗体 MAb1 (antibody, V domains shown)
VH: EVQLVESGGGLVKPGGSLKLSCAASGFTFSTYAMSWVRQTPEKRLEWVATISNGGTYTYYPDSVKGRFTISRDNAENTLYLQMSSLRSEDTAMYFCARLIYYDYLDYWGHGTTLTVSS
VL: DAVMTQTPLSLPVSLGDQASISCRSSQSLENSNGNTYLNWYFQKPGQSPQLLIYRVSNRFSGVLDRFSGSGSGTDFTLKISRVEAEDFGVYFCLQVTHVPWTFGGGTKLEIKR
notes: Mouse IgG1 (gamma 1) / kappa from a hybridoma; The constant regions are not in the listing; also called MAb1
